Test results reported in patent US20230235054A1 (BIOATLA, published 2023).
Changes are numbered by the printed parent chain.

T1: human Nectin-4 on cells (human, UniProt Q96NY8 32-510)
T1 construct: whole, on cells; also called HEK293 cells expressing human Nectin-4; T47D cells that express human Nectin-4
T1 sequence (looked up): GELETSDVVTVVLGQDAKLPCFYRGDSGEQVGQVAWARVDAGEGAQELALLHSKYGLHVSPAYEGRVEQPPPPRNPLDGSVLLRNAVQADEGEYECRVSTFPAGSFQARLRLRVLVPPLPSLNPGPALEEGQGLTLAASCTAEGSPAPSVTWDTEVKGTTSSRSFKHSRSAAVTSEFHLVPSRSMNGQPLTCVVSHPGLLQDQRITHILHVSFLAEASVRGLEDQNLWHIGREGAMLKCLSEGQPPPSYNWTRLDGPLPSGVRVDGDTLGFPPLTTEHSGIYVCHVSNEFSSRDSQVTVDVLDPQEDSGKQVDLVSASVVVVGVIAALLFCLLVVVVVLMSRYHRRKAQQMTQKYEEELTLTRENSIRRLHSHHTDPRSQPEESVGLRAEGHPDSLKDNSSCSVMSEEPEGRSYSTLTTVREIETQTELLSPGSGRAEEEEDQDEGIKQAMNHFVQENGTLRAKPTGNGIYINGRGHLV

T2: huNectin4-His (human, UniProt Q96NY8 32-349)
T2 construct: Immobilized on the SPR chip; also called humanNectin4; human Nectin4; not shown: His tag
T2 sequence (looked up): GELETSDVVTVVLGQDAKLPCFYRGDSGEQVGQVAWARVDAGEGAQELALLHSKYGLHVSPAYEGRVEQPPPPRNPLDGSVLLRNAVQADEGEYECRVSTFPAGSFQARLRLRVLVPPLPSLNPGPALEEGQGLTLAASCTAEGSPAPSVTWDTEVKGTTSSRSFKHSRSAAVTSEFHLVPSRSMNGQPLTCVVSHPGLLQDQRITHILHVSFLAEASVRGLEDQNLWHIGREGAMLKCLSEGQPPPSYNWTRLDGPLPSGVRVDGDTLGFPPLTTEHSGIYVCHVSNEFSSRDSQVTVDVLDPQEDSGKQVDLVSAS

T3: cynoNectin4-mFc (cyno, UniProt A0A2K5WES1 32-349)
T3 construct: Immobilized on the SPR chip; also called cyanoNectin4; not shown: mFc (mouse Fc)
T3 sequence: T2 sequence (looked up) with V39A, I230V

T4: recombinant human Nectin4 antigen (human, UniProt Q96NY8 32-349)
T4 construct: construct not described
T4 sequence (looked up): T2 sequence (looked up)

B1: BAP-143-wildtype (antibody, V domains shown)
VH: EVQLVESGGGLVQPGGSLRLSCAASGFTFSSYNMNWVRQAPGKGLEWVSYISSSSSTIYYADSVKGRFTISRDNAKNSLSLQMNSLRDEDTAVYYCARAYYYGMDVWGQGTTVTVSS
VL: DIQMTQSPSSVSASVGDRVTITCRASQGISGWLAWYQQKPGKAPKFLIYAASTLQSGVPSRFSGSGSGTDFTLTISSLQPEDFATYYCQQANSFPPTFGGGTKVEIK
notes: 150 kDa used in SPR; also called BAP143-00-00; benchmark (BM)
B2: BAP-143-00-03 (antibody, V domains shown)
VH: B1 VH
VL: B1 VL with P96D
notes: Used as a conjugate with a linker payload (CAB ADC)
B3: BAP-143-00-05 (antibody, V domains shown)
VH: B1 VH with R98E
VL: B1 VL
notes: as for B2
B4: BAP-143-00-04 (antibody, V domains shown)
VH: B1 VH with M34D
VL: B1 VL
notes: as for B2
B5: BAP-143-00-02 (antibody, V domains shown)
VH: B1 VH
VL: B1 VL with F94E
notes: as for B2
B6: BAP-143-00-06 (antibody, V domains shown)
VH: B1 VH with M104D
VL: B1 VL
notes: as for B2
B7: BAP-143-00-01 (antibody, V domains shown)
VH: B1 VH
VL: B1 VL with L33E
notes: as for B2

molecular target: T1, human Nectin-4 on cells; assay: FACS, HEK293 cells expressing human Nectin-4
Description: FACS analysis was carried out using HEK293 cells expressing human Nectin-4.

| Binder | Ratio (pH 7.4/6.0) of EC50 |
| --- | --- |
| B1 | 1.2 |
| B2 | 2 |
| B3 | 1.7 |
| B4 | 2.1 |
| B5 | 1.6 |
| B6 | 1.2 |
| B7 | 3.3 |

molecular target: T2, huNectin4-His; assay: SPR, huNectin4-His immobilized, pH 6.5
Description: (§1) Binding kinetics of anti-Nectin4 antibodies were measured by surface plasmon resonance using a SPR2/4 instrument (Sierra Sensors, Hamburg, Germany) and flat amine sensor chips. The SPR sensor contained four flow cells (FC1-FC4), each of which was addressed individually or in groups. huNectin4-His was immobilized in FC2, and cynoNectin4-mFc in FC4. No protein was immobilized in FC1 and FC3 which were used as control surfaces for FC2 and FC4, respectively.
(§2) All injections were done at a flow rate of 25 μL/min at 25° C. The sensor surface was activated with 1-ethyl-3-(3-dimethylaminopropyl)-carbodiimide (EDC) and N-hydroxysuccinimide (NHS) (200 mM/50 mM) for 480 seconds. HuNectin4-His (2 μg/mL in 10 mM NaAc, pH4.5) was injected for 480s and the surface was inactivated by injecting 1M ethanolamine-HCl for 480s. CynoNectin4 was immobilized using the same conditions as described for huNectin4-His, except that the cynoNectin4 was diluted into 10 mM NaAc buffer having pH 5.0. The control surface was activated and deactivated using the same conditions, but without injecting protein. PBST buffer (PBS pH 7.4 with 0.05% TWEEN20™) was used as running buffer for the surface preparation. The running solution was switched to PBST with 30 mM sodium bicarbonate with the pH adjusted as indicated in the figures before the analyte injections. The instrument was equilibrated with the running solution for one hour before the first analyte injection.
(§3) The off-rate was measured for 360s. The chip surface was regenerated after each cycle of interaction analysis by injecting 6 μL of 10 mM glycine (pH 2.0). Flow cells 1 and 3 without immobilized protein were used as control surfaces for reference subtraction.

| Binder | Kd | koff | kon |
| --- | --- | --- | --- |
| B1 | 0.685 nM |  |  |
| B2 | 2.97 nM | 0.00229 s⁻¹ | 771000 M⁻¹ s⁻¹ |
| B3 | 6.23 nM | 0.00453 s⁻¹ | 726000 M⁻¹ s⁻¹ |
| B4 | 1.5 nM | 0.00439 s⁻¹ | 2.94e+06 M⁻¹ s⁻¹ |
| B6 | 0.22 nM | 0.000726 s⁻¹ | 3.3e+06 M⁻¹ s⁻¹ |
| B7 | 5.15 nM | 0.00245 s⁻¹ | 476000 M⁻¹ s⁻¹ |

molecular target: T3, cynoNectin4-mFc; assay: SPR, cynoNectin4-mFc immobilized, pH 6.0
Description: as §1, §2, §3

| Binder | Kd | koff | kon |
| --- | --- | --- | --- |
| B1 | 1.06 nM |  |  |
| B2 | 2.33 nM | 0.00235 s⁻¹ | 1.01e+06 M⁻¹ s⁻¹ |
| B3 | 7.02 nM | 0.00449 s⁻¹ | 639000 M⁻¹ s⁻¹ |
| B4 | 2.08 nM | 0.00377 s⁻¹ | 1.82e+06 M⁻¹ s⁻¹ |
| B5 | 5.46 nM | 0.00242 s⁻¹ | 443000 M⁻¹ s⁻¹ |
| B6 | 0.56 nM | 0.00141 s⁻¹ | 2.52e+06 M⁻¹ s⁻¹ |
| B7 | 3.04 nM | 0.00248 s⁻¹ | 817000 M⁻¹ s⁻¹ |

molecular target: T4, recombinant human Nectin4 antigen; assay: ELISA, coated antigen, PSB pH 6.0
Description: 1) Coat ELISA plates with 100 μL of 1 μg/mL recombinant human Nectin4 antigen or cynoNectin4 antigen in carbonate-bicarbonate coating buffer. […] 2) Cover plates with sealing film and incubate overnight at 4° C. [0444] 3) Decant plates and tap out residual liquid on a stack of paper towels. [0445] 4) Wash wells twice by dispensing 200 μL of pH 6.0 or pH 7.4 ELISA incubation buffer to the wells and completely aspirate the contents. [0446] 5) Add 200 μL of pH 6.0 or pH 7.4 ELISA incubation buffer to the wells. Cover with sealing film and place the plate onto a plate shaker set to 50 rpm for 60 minutes at room temperature. [0447] 6) Decant plates and tap out residual liquid on a stack of paper towels. […] 7) Serially dilute test articles in 3-fold dilutions starting at 3000 ng/mL in pH 6.0 or pH 7.4 ELISA incubation buffer. […] 8) Add 100 μL/well of diluted test articles to the plates [0450] 9) Cover with sealing film and place the plates onto a plate shaker set to 50 rpm for 60 minutes at room temperature. [0451] 10) Decant plates and tap out residual liquid on a stack of paper towels. [0452] 11) Wash wells three times by dispensing 200 μL of pH 6.0 or pH 7.4 ELISA wash buffer to the wells and completely aspirate the contents. […] 12) Dilute the HRP secondary antibody at 1:2500 in pH 6.0 or pH 7.4 ELISA incubation buffer. [0454] […] 14) Cover with sealing film and place the plates onto a plate shaker set to 50 rpm for 60 minutes at room temperature. […] 15) Decant plates and tap out residual liquid on a stack of paper towels. […] 16) Wash wells three times by dispensing 200 μL of pH 6.0 or pH 7.4 ELISA wash buffer to the wells and completely aspirate the contents. [0458] 17) Dispense 50 μL per well of the TMB substrate solution into all wells of the plates.

| Binder | EC50 |
| --- | --- |
| B1 | 0.0316 µg/mL |
| B2 | 0.0344 µg/mL |
| B3 | 0.0441 µg/mL |
| B4 | 0.0258 µg/mL |
| B5 | 0.0876 µg/mL |
| B6 | 0.0247 µg/mL |
| B7 | 0.0313 µg/mL |
